Assay results reported in patent publication US20080292628A1.

Target: human VEGF (human) (UniProt P15692)
Assay: cell-based or functional assay

Chain of UniProt P15692 (P15692 other isoform, or with tags, fused parts or gaps limits assumed): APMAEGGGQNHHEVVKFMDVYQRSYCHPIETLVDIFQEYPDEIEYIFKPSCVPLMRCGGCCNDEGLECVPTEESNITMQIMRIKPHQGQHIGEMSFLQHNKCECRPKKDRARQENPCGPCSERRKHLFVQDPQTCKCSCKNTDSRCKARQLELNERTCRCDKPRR

VEGFR1-Fc-IL-1ra (Fc fusion)
EC50, inhibition of VEGF (10 ng/ml) dependent HUVE cell proliferation: 0.015 µg/mL
